The text below walks through data of patent US20140248269A1 (NATIONAL CEREBRAL AND CARDIOVASCULAR CENTER, published 2014).

The target in this experiment is T1, natriuretic peptide receptor GC-A (human, UniProt P16066 33-1061).
T1 sequence (looked up): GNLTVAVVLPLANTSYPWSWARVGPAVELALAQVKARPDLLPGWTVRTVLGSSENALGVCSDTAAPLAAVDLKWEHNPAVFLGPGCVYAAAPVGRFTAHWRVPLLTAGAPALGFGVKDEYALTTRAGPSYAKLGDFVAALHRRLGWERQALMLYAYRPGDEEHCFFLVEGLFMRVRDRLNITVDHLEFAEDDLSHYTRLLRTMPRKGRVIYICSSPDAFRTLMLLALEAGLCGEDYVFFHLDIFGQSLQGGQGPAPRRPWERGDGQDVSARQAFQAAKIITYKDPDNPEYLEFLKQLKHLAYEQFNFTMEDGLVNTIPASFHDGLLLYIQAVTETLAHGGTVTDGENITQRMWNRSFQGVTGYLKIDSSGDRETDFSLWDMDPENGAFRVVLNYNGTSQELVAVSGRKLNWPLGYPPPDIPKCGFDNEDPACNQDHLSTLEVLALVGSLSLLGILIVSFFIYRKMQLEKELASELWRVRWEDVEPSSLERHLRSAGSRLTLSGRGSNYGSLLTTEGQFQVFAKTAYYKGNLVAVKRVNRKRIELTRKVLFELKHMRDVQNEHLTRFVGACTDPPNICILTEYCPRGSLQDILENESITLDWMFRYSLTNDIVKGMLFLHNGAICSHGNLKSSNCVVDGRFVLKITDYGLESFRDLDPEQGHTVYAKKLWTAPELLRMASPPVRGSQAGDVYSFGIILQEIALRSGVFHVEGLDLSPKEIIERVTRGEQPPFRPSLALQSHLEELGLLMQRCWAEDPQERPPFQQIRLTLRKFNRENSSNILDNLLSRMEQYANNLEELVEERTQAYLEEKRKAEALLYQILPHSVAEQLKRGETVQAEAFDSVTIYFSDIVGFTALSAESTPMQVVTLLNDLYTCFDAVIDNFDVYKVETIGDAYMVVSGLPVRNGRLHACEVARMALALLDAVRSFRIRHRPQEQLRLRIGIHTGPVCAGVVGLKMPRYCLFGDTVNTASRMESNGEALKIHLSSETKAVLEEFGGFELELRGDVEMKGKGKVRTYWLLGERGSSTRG
The experiment is described as follows: cell-based or functional assay.

Consider SLRRSSCFGLKLDRIGAQSGLGCNSFRY [LKL-ANP (mutant in which the amino acids at positions 10 to 12 of hANP are replaced with LKL)], for which the “ratio of suppression of EMT induced by TGF-β1 in terms of E-cad/Ncad (A549 cells, 1 µM)” value is 52.9%.
